Results: patent publication CN113214393A

Target: IL-6R (UniProt P08887)
Experiment: chemiluminescent immunoassay; ABEI-labelled human IL-6 on IL-6R-coated magnetic beads, diluent only (no antibody); same control value printed in all four columns

Chain of UniProt P08887 (P08887 20-358 limits assumed): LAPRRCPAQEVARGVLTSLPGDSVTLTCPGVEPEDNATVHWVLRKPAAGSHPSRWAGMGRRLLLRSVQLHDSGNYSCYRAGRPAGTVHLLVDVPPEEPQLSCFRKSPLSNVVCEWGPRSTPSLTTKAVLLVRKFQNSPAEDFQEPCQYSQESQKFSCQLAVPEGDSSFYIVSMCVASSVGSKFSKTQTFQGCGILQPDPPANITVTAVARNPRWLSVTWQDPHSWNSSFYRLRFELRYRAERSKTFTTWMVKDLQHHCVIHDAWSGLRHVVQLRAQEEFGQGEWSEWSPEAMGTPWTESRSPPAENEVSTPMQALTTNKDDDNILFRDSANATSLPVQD

In the case of “人IL-6抗原 (from UniProt P05231 30-212) (ligand)”, the RLU (相对光强度) is reported as 606000 RLU.
